Measured values reported in article PMC13544220, “Glycemic and bodyweight effects of GIPR coding variation reflect differences in surface expression and intrinsic functional impairment” (Science Advances, 2026).

Key:
Type in all cases: cell-based, human
[1] = tested on: wild-type and variant SNAP-GIPR; assay: Surface SNAP-GIPR expression (SNAP-tag labelling) in INS-1 cells; details: Fig 4G; Mean
Method in brief: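 Surface GIPR is quantified from wide-field images after labelling intact transfected cells with a membrane-impermeant SNAP probe at 500 nM for 10 min at room temperature. Specific signal, corrected for nontransfected cells, is normalized to the experiment-wide average or to wild-type.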

[2] = tested on: wild-type and variant SNAP-GIPR; assay: Single-concentration GIP cAMP response by HTRF in AD293 cells; details: Fig S3F, HTRF, mean;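 note: ratio to experiment-wide average response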
Description: All variants were tested in parallel on each occasion to control for transfection efficiency differences between experiments.

[3] = tested on: wild-type and variant SNAP-GIPR; assay: cADDis cAMP imaging in AD293 cells, ensemble, expression-matched and per decile; details: Fig S3F, cADDis, mean
Method in brief: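 Per-cell cAMP from cADDis intensity over time, with cells excluded by IBMX/FSK response criteria. Expression matching used wild-type surface-SNAP deciles, top and bottom trimmed, mean of decile means. Ensemble values ignore deciles. Wide-field imaging at 37 °C in KRBH with 6 mM glucose, 0.1% BSA, 24 h post-transfection in AD293.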

[4] = tested on: wild-type and variant SNAP-GIPR; assay: Constitutive and agonist-mediated internalization, reversible SNAP-tag labelling, AD293 cells; design: key to Internalisation, Vehicle / Internalisation, +GIP / Internalisation, GIP-only: % internalization: residual fluorescence after Mesna vs pre-Mesna; Surface expression: unit not given here; details: Mean; for +GIP internalisation (100 nM) / GIP-specific internalisation (100 nM) / Constitutive internalisation (100 nM) / Surface expression: Fig 4E; for +GIP internalisation (100 nM) / GIP-specific internalisation (100 nM): GIP 100 nM; for Internalisation, +GIP / Internalisation, GIP-only / Internalisation, Vehicle: Fig S4C, AD293
Method in brief: (§1)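 Surface SNAP-GIPR signal removable by Mesna was tracked by imaging before and 10 min after treatment in pH 8.6 TNE buffer. Internalization is the Mesna-resistant share of specific fluorescence.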

[5] = tested on: wild-type and variant SNAP-GIPR; assay: Constitutive and agonist-mediated internalization, reversible SNAP-tag labelling, INS-1 cells; design: key to Internalisation, GIP-only / Internalisation, Vehicle / Internalisation, +GIP: % internalization: residual fluorescence after Mesna vs pre-Mesna; details: Mean; for +GIP internalisation (100 nM) / GIP-specific internalisation (100 nM) / Constitutive internalisation (100 nM): Fig 4G; for +GIP internalisation (100 nM) / GIP-specific internalisation (100 nM): GIP 100 nM; for Internalisation, +GIP / Internalisation, GIP-only / Internalisation, Vehicle: Fig S4C, INS-1
Method in brief: as §1

[6] = tested on: wild-type and variant SNAP-GIPR in Gipr-/- mouse islets; assay: Surface SNAP-GIPR expression in pancreatic islets; details: Fig 6B
Description: Islets were purified from Gipr^−/− mice as described in the “Islet isolation and culture” section. Islets were transduced with adenoviral wild-type or variant SNAP-tagged GIPR constructs (VectorBuilder) per the manufacturer’s instructions. All variants were tested in parallel on each occasion to control for transduction efficiency. Twenty-four hours posttransduction, whole, intact islets were labeled with SNAP-Surface Alexa Fluor 647 for 15 min at 37°C. Following labeling, the islets were placed in a drop of PBS in the center of a glass-bottom MatTek dish and imaged on a Zeiss LSM 780 inverted confocal microscope fitted with a 63X/1.4 NA oil immersion objective. Receptor surface levels were quantified in Fiji using a macro using full width at half maximum (FWHM) designed by the Facility for Imaging and Light Microscopy (FILM) at Imperial College London and expressed relative to wild-type GIPR. In additional experiments, islets transduced as above and labeled with SNAP-Surface-647 were fixed in 4% paraformaldehyde, permeabilized in 0.5% (v/v) Triton X-100 in PBS (15 min), washed once with PBS and incubated in blocking buffer (PBS and 1% BSA) for 1 hour, and incubated overnight at 4°C in primary antibodies against insulin (1:50; Dako IR002, Agilent Technologies) and glucagon (1:500; G2654, Sigma-Aldrich) in blocking buffer.

Row | Molecule | Surface expression [1] | AD293 100 pM HTRF [2] | AD293 100 nM HTRF [2] | AD293 100 pM cADDis [3] | AD293 100 nM cADDis [3] | +GIP internalisation (100 nM) [4] | GIP-specific internalisation (100 nM) [4] | Constitutive internalisation (100 nM) [4] | Surface expression [4] | Internalisation, +GIP [4] | Internalisation, GIP-only [4] | Internalisation, Vehicle [4] | +GIP internalisation (100 nM) [5] | GIP-specific internalisation (100 nM) [5] | Constitutive internalisation (100 nM) [5] | Internalisation, +GIP [5] | Internalisation, GIP-only [5] | Internalisation, Vehicle [5] | Surface SNAP-GIPR expression in pancreatic islets ([6]; replicate 1) | Surface SNAP-GIPR expression in pancreatic islets ([6]; replicate 2) | also measured
1 | WT (protein, UniProt P48546 22-466, looked up) Gastric inhibitory …: RAETGSKGQTAGELYQRWERYRRECQETLAAAEPPSGLACNGSFDMYVCWDYAAPNATARASCPWYLPWHHHVAAGFVLRQCGSDGQWGLWRDHTQCENPEKNEAFLDQRLILERLQVMYTVGYSLSLATLLLALLILSLFRRLHCTRNYIHINLFTSFMLRAAAILSRDRLLPRPGPYLGDQALALWNQALAACRTAQIVTQYCVGANYTWLLVEGVYLHSLLVLVGGSEEGHFRYYLLLGWGAPALFVIPWVIVRYLYENTQCWERNEVKAIWWIIRTPILMTILINFLIFIRILGILLSKLRTRQMRCRDYRLRLARSTLTLVPLLGVHEVVFAPVTEEQARGALRFAKLGFEIFLSSFQGFLVSVLYCFINKEVQSEIRRGWHHCRLRRSLGEEQRQLPERAFRALPSGSGPGEVPTSRGLSSGTLPGPGNEASRELESYC | 1.4278 | 1.584 | 1.495 | 34.2953 | 38.14 | 0.9729 | 0.2717 | 0.7012 | 1.75 | 55.4256 | 15.538 | 39.8877 | 0.7446 | 0.2047 | 0.5399 | 51.1244 | 14.2697 | 36.8547 | 1.958 | 2.33 | Surface SNAP-GIPR expression in pancreatic islets ([6]; replicate 3): 2.173; Surface SNAP-GIPR expression in pancreatic islets ([6]; replicate 4): 3.278; Surface SNAP-GIPR expression in pancreatic islets ([6]; replicate 5): 3.132
2 | R190Q (protein, left off: SNAP-tag, end not stated, kept) RAETGSKGQTAGELYQRWERYRRECQETLAAAEPPSGLACNGSFDMYVCWDYAAPNATARASCPWYLPWHHHVAAGFVLRQCGSDGQWGLWRDHTQCENPEKNEAFLDQRLILERLQVMYTVGYSLSLATLLLALLILSLFRRLHCTRNYIHINLFTSFMLRAAAILSQDRLLPRPGPYLGDQALALWNQALAACRTAQIVTQYCVGANYTWLLVEGVYLHSLLVLVGGSEEGHFRYYLLLGWGAPALFVIPWVIVRYLYENTQCWERNEVKAIWWIIRTPILMTILINFLIFIRILGILLSKLRTRQMRCRDYRLRLARSTLTLVPLLGVHEVVFAPVTEEQARGALRFAKLGFEIFLSSFQGFLVSVLYCFINKEVQSEIRRGWHHCRLRRSLGEEQRQLPERAFRALPSGSGPGEVPTSRGLSSGTLPGPGNEASRELESYC | 0.5789 | 0.272 | 0.2205 | -0.9408 | 9.541 | 0.1813 | -0.007972 | 0.1892 | 0.3493 | 51.2548 | -3.738 | 54.9926 | 0.2705 | 0.0143 | 0.2562 | 45.6067 | 2.692 | 42.915 | 0.6777 | 0.189 | Surface SNAP-GIPR expression in pancreatic islets ([6]; replicate 3): 0.9549; Surface SNAP-GIPR expression in pancreatic islets ([6]; replicate 4): -0.2055; Surface SNAP-GIPR expression in pancreatic islets ([6]; replicate 5): -0.1767
3 | R101H (protein) RAETGSKGQTAGELYQRWERYRRECQETLAAAEPPSGLACNGSFDMYVCWDYAAPNATARASCPWYLPWHHHVAAGFVLHQCGSDGQWGLWRDHTQCENPEKNEAFLDQRLILERLQVMYTVGYSLSLATLLLALLILSLFRRLHCTRNYIHINLFTSFMLRAAAILSRDRLLPRPGPYLGDQALALWNQALAACRTAQIVTQYCVGANYTWLLVEGVYLHSLLVLVGGSEEGHFRYYLLLGWGAPALFVIPWVIVRYLYENTQCWERNEVKAIWWIIRTPILMTILINFLIFIRILGILLSKLRTRQMRCRDYRLRLARSTLTLVPLLGVHEVVFAPVTEEQARGALRFAKLGFEIFLSSFQGFLVSVLYCFINKEVQSEIRRGWHHCRLRRSLGEEQRQLPERAFRALPSGSGPGEVPTSRGLSSGTLPGPGNEASRELESYC | 0.19 | -0.001017 | 0.2474 | 6.465 | 17.19 | 0.1328 | 0.01912 | 0.1137 | 0.2712 | 49.9522 | 4.89 | 45.062 | 0.1025 | -0.004871 | 0.1074 | 52.1317 | -2.542 | 54.6733 | 0.3446 | 0.4042 | Surface SNAP-GIPR expression in pancreatic islets ([6]; replicate 3): 0.02787; Surface SNAP-GIPR expression in pancreatic islets ([6]; replicate 4): 0.08995; Surface SNAP-GIPR expression in pancreatic islets ([6]; replicate 5): -0.05398
4 | E354Q (protein) RAETGSKGQTAGELYQRWERYRRECQETLAAAEPPSGLACNGSFDMYVCWDYAAPNATARASCPWYLPWHHHVAAGFVLRQCGSDGQWGLWRDHTQCENPEKNEAFLDQRLILERLQVMYTVGYSLSLATLLLALLILSLFRRLHCTRNYIHINLFTSFMLRAAAILSRDRLLPRPGPYLGDQALALWNQALAACRTAQIVTQYCVGANYTWLLVEGVYLHSLLVLVGGSEEGHFRYYLLLGWGAPALFVIPWVIVRYLYENTQCWERNEVKAIWWIIRTPILMTILINFLIFIRILGILLSKLRTRQMRCRDYRLRLARSTLTLVPLLGVHQVVFAPVTEEQARGALRFAKLGFEIFLSSFQGFLVSVLYCFINKEVQSEIRRGWHHCRLRRSLGEEQRQLPERAFRALPSGSGPGEVPTSRGLSSGTLPGPGNEASRELESYC | 0.7154 | 4.703 | 1.4229 | 41.2353 | 37.94 | 0.4635 | 0.1217 | 0.3419 | 0.6766 | 68.6221 | 17.9918 | 50.6302 | 0.4403 | 0.1518 | 0.2885 | 61.4683 | 21.0467 | 40.4217 | 1.913 | 1.476 | Surface SNAP-GIPR expression in pancreatic islets ([6]; replicate 3): 1.8301; Surface SNAP-GIPR expression in pancreatic islets ([6]; replicate 4): 2.1125; Surface SNAP-GIPR expression in pancreatic islets ([6]; replicate 5): 2.267
